The term Kd denotes the constant that tells how readily two partners part at equilibrium. A high value points to lower affinity. By EC50 is commonly meant the concentration that produces a half-maximal response. As a reminder, the IC50 is the point on the concentration scale where inhibition reaches its midpoint. A low value points to greater potency.

For assay [1], the target named is T1, human LAG-3-his (human, UniProt P18627 23-422).
T1 construct: range 23-422; also called hLAG-3-his; hLAG-3
T1 sequence: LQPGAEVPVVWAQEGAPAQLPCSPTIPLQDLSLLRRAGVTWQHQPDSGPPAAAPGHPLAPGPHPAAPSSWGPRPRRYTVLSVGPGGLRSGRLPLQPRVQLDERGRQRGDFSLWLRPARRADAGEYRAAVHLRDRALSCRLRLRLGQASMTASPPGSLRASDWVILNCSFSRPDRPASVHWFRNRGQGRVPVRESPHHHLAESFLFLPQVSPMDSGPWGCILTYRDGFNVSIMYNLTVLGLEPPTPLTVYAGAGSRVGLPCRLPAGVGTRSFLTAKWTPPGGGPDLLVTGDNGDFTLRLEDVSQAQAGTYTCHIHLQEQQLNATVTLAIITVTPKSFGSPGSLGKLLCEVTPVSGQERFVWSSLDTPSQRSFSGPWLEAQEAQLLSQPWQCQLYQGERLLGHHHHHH
Put plainly: Biacore T200, antibody captured on Protein A, LAG-3-his in solution. How it is done:
First, Protein A (Thermo Pierce, Cat. No.: 21181) was coupled to the biosensor chip CMS (GE, Cat. No.: BR-4005-30) using pH 7.4 running buffer HBS-EP+ (10 mM HEPES, 150 mM NaCl, 3 mM EDTA, and 0.05% P20). The chip was activated with a freshly prepared 50 mM NHS (N-hydroxysuccinimide) and 200 mM EDC (1-ethyl-3-(3-dimethylaminopropyl) carbodiimide hydrochloride) followed by injection of 10 μg/ml Protein A prepared with 10 mM NaAc (pH4.0). […] The flow rate was […], binding time was 180 s, and dissociation time was 300 s, After the experiment, the chip was washed for 30 s with 10 mM Glycine-HCl (pH 1.5) at a flow rate of 30 μl/min. The experimental data were fitted with the 1:1 Langmuir model using the software of Biacore T200 evaluation version 3.0 (GE), and the value of affinity KD was obtained.

Assay [2] has as its target T2, human LAG-3 on CHO-K1 cells (hLAG-3+ cells) (human, UniProt P18627 23-525).
T2 construct: whole, on cells; Cells fixed in the cell ELISA; also called CHO-K1hLAG-3+ cell strain
T2 sequence (looked up): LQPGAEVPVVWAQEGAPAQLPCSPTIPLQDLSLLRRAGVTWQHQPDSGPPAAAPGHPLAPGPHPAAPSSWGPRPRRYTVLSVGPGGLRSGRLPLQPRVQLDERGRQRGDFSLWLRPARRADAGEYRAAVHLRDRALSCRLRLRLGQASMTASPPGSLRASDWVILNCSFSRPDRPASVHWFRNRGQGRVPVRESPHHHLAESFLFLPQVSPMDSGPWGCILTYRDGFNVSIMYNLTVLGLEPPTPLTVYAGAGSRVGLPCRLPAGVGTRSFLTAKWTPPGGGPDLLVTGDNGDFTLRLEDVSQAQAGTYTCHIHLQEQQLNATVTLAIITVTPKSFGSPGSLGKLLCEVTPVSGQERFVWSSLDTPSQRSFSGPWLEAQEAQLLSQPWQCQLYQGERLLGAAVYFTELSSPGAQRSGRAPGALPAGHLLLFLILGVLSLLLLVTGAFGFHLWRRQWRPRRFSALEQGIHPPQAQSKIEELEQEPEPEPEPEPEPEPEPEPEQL
Put plainly: cell ELISA on fixed CHO-K1 hLAG-3+ cells. As for the experimental part: After washing with PBS (BasalMedia Biology, Cat. No.: B320) once, 5% milk was added with 230 μl per well, and the microplate was incubated for 2 hours at 37° C. for blocking, and then was washed three times with PBST. After washing, each well was added with 50 μl sample (the samples were 5-fold serially diluted with an initial concentration of 10 μg/ml). The microplate was then incubated for 1 hour at 37° C. and washed 5 times with PBST. […] After washing the microplate 5 times with PBST, 50 μl/well TMB (Sunnodic, Cat. No.: TTMB-1000-01) was added to the microplate for color development. Finally, 50 μl/well of 1M H₂SO₄ was added to stop the reaction. The microplate was then read by a microplate reader (MultiskanGO Thermo, model 511919200), and the data were analyzed using Graphpad prism 5.
Background: ELISA stands for enzyme-linked immunosorbent assay.

The next assay deals with T3, bio-LAG3-mFc (human, UniProt P18627 23-450, biotin-labelled).
T3 construct: also called hLAG-3
T3 sequence (looked up): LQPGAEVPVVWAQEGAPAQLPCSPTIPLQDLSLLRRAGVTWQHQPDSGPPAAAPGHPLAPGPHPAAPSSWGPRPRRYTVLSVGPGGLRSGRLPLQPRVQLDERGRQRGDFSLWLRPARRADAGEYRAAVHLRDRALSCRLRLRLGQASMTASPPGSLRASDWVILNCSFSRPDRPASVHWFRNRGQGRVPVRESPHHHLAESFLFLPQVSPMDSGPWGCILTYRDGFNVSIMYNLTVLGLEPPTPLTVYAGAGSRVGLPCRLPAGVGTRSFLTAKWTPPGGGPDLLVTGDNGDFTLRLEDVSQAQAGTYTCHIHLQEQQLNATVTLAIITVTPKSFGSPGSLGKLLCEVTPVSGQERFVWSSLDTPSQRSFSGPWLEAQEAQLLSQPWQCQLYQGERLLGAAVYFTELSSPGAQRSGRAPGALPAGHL
The assay is described as follows: blocking ELISA, LAG-3 on Daudi cells.

The target in assay [3] is T1, human LAG-3-his. The assay is described as follows: ELISA on hLAG-3. How it is done:
After discarding the liquid, a blocking solution of 5% skimmed milk (Bright skimmed milk powder) diluted with PBS was added at 230 μl per well, followed by incubating at 37° C. for 3 hours or 4° C. overnight (16-18 hours) for blocking. Subsequently, the blocking solution was discarded, and the micropiate was washed 5 times with PBST buffer (pH 7.4 PBS containing 0.05% tweeen-20). Then 50 μl/well of the supernatant (containing the antibody to be tested) or a starting concentration of 10 μg/ml of the antibody to be tested, which was diluted 5 times in gradient, was added, followed by incubating the mixture for 1 hour at 37° C. […] After washing the microplate 5 times with PBST, 50 μl/well TIMB chromogenic substrate (KPL, Cat. No.: 52-00-03) was added, and then incubated for […] at room temperature. Finally, 50 μl/well of 1 M H₂SO₄ was added to stop the reaction. The absorbance value at 450 nm was read by […] GO microplate reader (ThermoFisher, Cat. No.: 51119200). The clones with high affinity were selected according to the OD value or the EC₅₀ value was calculated (for antibodies with known concentrations).

Another assay deals with T4, cyno-LAG3-hFc (cynomolgus monkey).
T4 construct: Bought product; also called cynomolgus monkey LAG-3
Put plainly: ELISA.

Changes are numbered by the printed parent chain.

B1: humanized anti-human LAG-3 antibody Ab2317 (antibody, human IgG4 S228P, kappa, V domains shown)
VH: QVQLVQSGAEVKKPGASVKVSCKASGYTFTDYEMHWVKQAPGQGLEWIGGIDPETEGIAYNQKFRGRATLTADKSTSTAYMELRSLRSDDTAVYYCTNSNYYGGREAWFAYWGQGTLVTVSS
VL: DIQMTQSPSSLSASVGDRVTITCRASQDIGSSLNWYQQKPGKAPKRLIYATSSLDSGVPSRFSGSRSGSDFTLTISSLQPEDFATYYCLQYVTSPLTFGGGTKVEIKR
notes: LG2317 / LG2343, human kappa / hIgG4
B1: the Kd with human LAG-3-his [1] came out at 0.168 nM. In addition, the results for the EC50 (in assay [2]; with human LAG-3-his [3]) were 0.2 nM and 0.119 nM, respectively. In addition, 1.64 nM corresponded to half-maximal inhibition with bio-LAG3-mFc (IC50). Moreover, the “fold weaker than binding to human LAG-3” value in the assay with cyno-LAG3-hFc was above 200 times.

B2: humanized antibody Ab2325 (antibody, human IgG4 S228P, kappa, V domains shown)
VH: B1 VH with I48M, L70M, A72T, K74T, T97A
VL: B1 VL
notes: LG2317 / LG2348, human kappa / hIgG4
As to B2, the Kd in the assay with human LAG-3-his [1] was found to be 0.19 nM. Moreover, the EC50 was 0.19 nM in assay [2] and 0.142 nM with human LAG-3-his [3]. For the same molecule, the midpoint of inhibition in the assay with bio-LAG3-mFc, the IC50, lay at 1.76 nM. Besides, the “fold weaker than binding to human LAG-3” value with cyno-LAG3-hFc was above 200 times.

The record behind these values is patent US20220340657A1 (L AND L BIO CO LTD NINGBO CHINA, published 2022).
